Data from publication doi:10.1101/2023.07.13.548819, “Trafficking Machinery is Rapidly Primed to Facilitate Polarised IL-6 Secretion in Dendritic Cells” (bioRxiv, 2023).

Biological target: T1, cytosolic fragment of human STX4 (residues 1-271 with 272C) (human, UniProt Q12846 1-271)
T1 construct: human STX4 lacking the transmembrane domain, residues 1-271; synthetic gene in NdeI/XhoI of pET28a(+); cysteine at position 272 ('residues 1-271 with 272C')
T1 chain: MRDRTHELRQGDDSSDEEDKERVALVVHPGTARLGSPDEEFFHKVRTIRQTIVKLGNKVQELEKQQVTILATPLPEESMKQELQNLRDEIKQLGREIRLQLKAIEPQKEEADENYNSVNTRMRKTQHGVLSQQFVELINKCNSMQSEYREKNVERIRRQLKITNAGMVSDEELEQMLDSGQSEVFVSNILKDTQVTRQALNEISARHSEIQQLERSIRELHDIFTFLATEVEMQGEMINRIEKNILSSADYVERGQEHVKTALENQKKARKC
Assay: SEC; 100 mM (so in the source) of each protein mixed, overnight at RT; ENrich SEC 70 column in 20 mM HEPES pH 7.4, 100 mM NaCl, 0.2 mM TCEP, 1% CHAPS
Conditions: both partners purified

binding result: binds
B1: VAMP2(49-96) (domain or fragment, UniProt P63045 49-96, looked up)
chain: NVDKVLERDQKLSELDDRADALQAGASQFETSAAKLKRKYWWKNLKMM
notes: VAMP2, C-terminal half of the SNARE motif, residues 49-96; construct described previously (Pobbati, Stein and Fasshauer, 2006); that fragment is, as far as I recall, from rat; also called C-terminal half of the SNARE motif of VAMP2 (residues 49-96)
